Results reported in PMC6156764.

B1: Flag-tagged wild-type GBP-1 fragment α7–13 (residues 311–582), P32455 K397A; Q398A; N399A; Q400A; E401A; S403A (protein)
chain: CMENAVLALAQIENSAAVQKAIAHYEQQMGQKVQLPTETLQELLDLHRDSEREAIEVFIRSSFKDVDHLFQKELAAQLEKKRDDFCAAAAAAASDRCSALLQVIFSPLEEEVKAGIYSKPGGYRLFVQKLQDLKKKYYEEPRKGIQAEEILQTYLKSKESMTDAILQTDQTLTEKEKEIEVERVKAESAQASAKMLQEMQRKNEQMMEQKERSYQEHLKQLTEKMENDRVQLLKEQERTLALKLQEQEQLLKEGFQKESRIMKNEIQDLQTK
B2: Flag-tagged wild-type GBP-1 fragment α7–13 (residues 311–582), P32455 K390A; K391A; R392A; D393A; D394A; F395A; C396A (protein)
chain: CMENAVLALAQIENSAAVQKAIAHYEQQMGQKVQLPTETLQELLDLHRDSEREAIEVFIRSSFKDVDHLFQKELAAQLEAAAAAAAKQNQEASSDRCSALLQVIFSPLEEEVKAGIYSKPGGYRLFVQKLQDLKKKYYEEPRKGIQAEEILQTYLKSKESMTDAILQTDQTLTEKEKEIEVERVKAESAQASAKMLQEMQRKNEQMMEQKERSYQEHLKQLTEKMENDRVQLLKEQERTLALKLQEQEQLLKEGFQKESRIMKNEIQDLQTK
B3: Flag-tagged wild-type GBP-1 fragment α7–13 (residues 311–582), P32455 L418A; E419A; E420A; E421A; V422A; K423A (protein)
chain: CMENAVLALAQIENSAAVQKAIAHYEQQMGQKVQLPTETLQELLDLHRDSEREAIEVFIRSSFKDVDHLFQKELAAQLEKKRDDFCKQNQEASSDRCSALLQVIFSPAAAAAAAGIYSKPGGYRLFVQKLQDLKKKYYEEPRKGIQAEEILQTYLKSKESMTDAILQTDQTLTEKEKEIEVERVKAESAQASAKMLQEMQRKNEQMMEQKERSYQEHLKQLTEKMENDRVQLLKEQERTLALKLQEQEQLLKEGFQKESRIMKNEIQDLQTK
B4: Flag-tagged wild-type GBP-1 fragment α7–13 (residues 311–582), P32455 V376A; D377A; H378A; L379A; F380A; Q381A; K382A (protein)
chain: CMENAVLALAQIENSAAVQKAIAHYEQQMGQKVQLPTETLQELLDLHRDSEREAIEVFIRSSFKDAAAAAAAELAAQLEKKRDDFCKQNQEASSDRCSALLQVIFSPLEEEVKAGIYSKPGGYRLFVQKLQDLKKKYYEEPRKGIQAEEILQTYLKSKESMTDAILQTDQTLTEKEKEIEVERVKAESAQASAKMLQEMQRKNEQMMEQKERSYQEHLKQLTEKMENDRVQLLKEQERTLALKLQEQEQLLKEGFQKESRIMKNEIQDLQTK
B5: Flag-tagged wild-type GBP-1 fragment α7–13 (residues 311–582), P32455 S404A; D405A; R406A; C407A; S408A; L410A (protein)
chain: CMENAVLALAQIENSAAVQKAIAHYEQQMGQKVQLPTETLQELLDLHRDSEREAIEVFIRSSFKDVDHLFQKELAAQLEKKRDDFCKQNQEASAAAAAAALQVIFSPLEEEVKAGIYSKPGGYRLFVQKLQDLKKKYYEEPRKGIQAEEILQTYLKSKESMTDAILQTDQTLTEKEKEIEVERVKAESAQASAKMLQEMQRKNEQMMEQKERSYQEHLKQLTEKMENDRVQLLKEQERTLALKLQEQEQLLKEGFQKESRIMKNEIQDLQTK
B6: Flag-tagged wild-type GBP-1 fragment α7–13 (residues 311–582), P32455 L411A; Q412A; V413A; I414A; F415A; S416A; P417A (protein)
chain: CMENAVLALAQIENSAAVQKAIAHYEQQMGQKVQLPTETLQELLDLHRDSEREAIEVFIRSSFKDVDHLFQKELAAQLEKKRDDFCKQNQEASSDRCSALAAAAAAALEEEVKAGIYSKPGGYRLFVQKLQDLKKKYYEEPRKGIQAEEILQTYLKSKESMTDAILQTDQTLTEKEKEIEVERVKAESAQASAKMLQEMQRKNEQMMEQKERSYQEHLKQLTEKMENDRVQLLKEQERTLALKLQEQEQLLKEGFQKESRIMKNEIQDLQTK
B7: Flag-tagged wild-type GBP-1 fragment α7–13 (residues 311–582), P32455 E383A; L384A; Q387A; L388A; E389A (protein)
chain: CMENAVLALAQIENSAAVQKAIAHYEQQMGQKVQLPTETLQELLDLHRDSEREAIEVFIRSSFKDVDHLFQKAAAAAAAKKRDDFCKQNQEASSDRCSALLQVIFSPLEEEVKAGIYSKPGGYRLFVQKLQDLKKKYYEEPRKGIQAEEILQTYLKSKESMTDAILQTDQTLTEKEKEIEVERVKAESAQASAKMLQEMQRKNEQMMEQKERSYQEHLKQLTEKMENDRVQLLKEQERTLALKLQEQEQLLKEGFQKESRIMKNEIQDLQTK

target: endogenous TEA domain protein (TEAD), detected with a pan-TEAD antibody, P28347; assay: co-immunoprecipitation (α-Flag) with western blot quantification; details: chain shown with the change; lysates of transiently transfected HeLa cells; n = 3; parent: est. 1.0; read off a plot
Sequence (P28347 whole entry, the tested form may be a part): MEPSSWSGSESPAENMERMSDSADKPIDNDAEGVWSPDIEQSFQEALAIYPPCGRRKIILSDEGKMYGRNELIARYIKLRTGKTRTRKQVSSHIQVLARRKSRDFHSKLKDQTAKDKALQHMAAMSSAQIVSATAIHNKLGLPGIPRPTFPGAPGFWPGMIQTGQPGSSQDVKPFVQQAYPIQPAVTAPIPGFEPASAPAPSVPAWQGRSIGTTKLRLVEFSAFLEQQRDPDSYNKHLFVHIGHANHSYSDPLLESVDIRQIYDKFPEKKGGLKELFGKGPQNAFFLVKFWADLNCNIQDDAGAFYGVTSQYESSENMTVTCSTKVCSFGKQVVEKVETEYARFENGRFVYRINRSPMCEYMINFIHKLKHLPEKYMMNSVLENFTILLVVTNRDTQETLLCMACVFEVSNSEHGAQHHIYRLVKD

ratio to parent | Binder
1.7 | B1
1.6 | B2
0.95 | B3
0.37 | B4
1.1 | B5
1.2 | B6
1.6 | B7
